Values quoted from earlier work, collected in US20050096266A1, “Preparation and method for weight reduction” (priority 2002, published 2005).

System: trypsin
Conditions: trypsin secreted into the duodenum by the pancreas; per one weight unit of inhibitor

B1: soybean trypsin inhibitor: Commercial proteinous trypsin inhibitor (Type Il-S, Sigma Chemical Co.) that binds trypsin, forming inactive complexes (protein, UniProt P01070 25-205, looked up)
Trypsin inhibitor A: DFVLDNEGNPLENGGTYYILSDITAFGGIRAAPTGNERCPLTVVQSRNELDKGIGTIISSPYRIRFIAEGHPLSLKFDSFAVIMLCVGIPTEWSVVEDLPEGPAVKIGENKDAMDGWFRLERVSDDEFNNYKLVFCPQQAEDDKCGDIGISIDHDDGTRRLVVSKNKPLVVQFQKLDKESL
In the case of B1, the “weight units of trypsin inactivated by one weight unit of the inhibitor” value is given as 2.5 weight units.
